Biological target: T1, His-tagged wild-type MELK recombinant protein (human, UniProt Q14680-1 1-651)
T1 construct: pET21a usually adds a C-terminal His6 tag; also called WT-MELK; His-tagged WT-MELK; source: E. coli BL21 codon-plus (DE3) RIL, purified (Ni-NTA superflow, nondenaturing)
Test: pull-down; in vitro binding assay: 10 ug His-tagged MELK held by anti-6XHis antibody on protein G Sepharose; 5 ug Bcl-GL recombinant protein in 500 ul binding buffer (50 mM Tris, 75 mM NaCl, 10 mM MgCl2, 1 mM DTT, 2% BSA, 100 uM ATP), 30 minutes at 4°C; blot with anti-Bcl-GL
Conditions: both partners purified

T1 sequence (Q14680 whole entry): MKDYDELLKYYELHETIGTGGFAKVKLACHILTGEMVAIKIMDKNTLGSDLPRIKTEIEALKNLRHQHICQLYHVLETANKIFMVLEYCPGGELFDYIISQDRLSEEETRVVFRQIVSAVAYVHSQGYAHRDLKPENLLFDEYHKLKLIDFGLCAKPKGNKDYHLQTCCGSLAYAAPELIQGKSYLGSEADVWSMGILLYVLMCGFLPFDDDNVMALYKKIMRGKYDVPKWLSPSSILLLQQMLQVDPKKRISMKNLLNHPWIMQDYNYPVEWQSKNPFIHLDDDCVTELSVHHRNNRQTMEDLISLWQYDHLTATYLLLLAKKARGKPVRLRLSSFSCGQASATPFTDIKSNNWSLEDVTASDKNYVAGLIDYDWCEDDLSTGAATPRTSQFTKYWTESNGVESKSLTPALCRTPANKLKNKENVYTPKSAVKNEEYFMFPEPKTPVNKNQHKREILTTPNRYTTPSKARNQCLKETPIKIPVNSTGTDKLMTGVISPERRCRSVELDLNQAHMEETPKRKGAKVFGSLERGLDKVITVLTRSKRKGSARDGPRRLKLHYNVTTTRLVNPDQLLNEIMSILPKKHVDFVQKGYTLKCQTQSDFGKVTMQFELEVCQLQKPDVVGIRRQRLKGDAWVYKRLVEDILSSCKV

B1: Bcl-GL recombinant protein (GST removed) (natural protein, human, UniProt Q9BZR8-1 1-327, looked up)
chain: MCSTSGCDLEEIPLDDDDLNTIEFKILAYYTRHHVFKSTPALFSPKLLRTRSLSQRGLGNCSANESWTEVSWPCRNSQSSEKAINLGKKKSSWKAFFGVVEKEDSQSTPAKVSAQGQRTLEYQDSHSQQWSRCLSNVEQCLEHEAVDPKVISIANRVAEIVYSWPPPQATQAGGFKSKEIFVTEGLSFQLQGHVPVASSSKKDEEEQILAKIVELLKYSGDQLERKLKKDKALMGHFQDGLSYSVFKTITDQVLMGVDPRGESEVKAQGFKAALVIDVTAKLTAIDNHPMNRVLGFGTKYLKENFSPWIQQHGGWEKILGISHEEVD
notes: source: E. coli BL21 codon-plus RIL, purified (Glutathione Sepharose 4B), GST removed with PreScission protease
B1: binds.

From paper PMC1851384, “Involvement of maternal embryonic leucine zipper kinase (MELK) in mammary carcinogenesis through interaction with Bcl-G, a pro-apoptotic member of the Bcl-2 family” (Breast Cancer Research, 2007)
